Test results taken from US7919104B2, “Functional epitopes of Streptococcus pneumoniae PsaA antigen and uses thereof” (priority 2005, dated 2011).
Values joined by “and” are separate entries in the source; they are usually repeats but may differ in a detail not shown here. Identical values can stand only once.

Legend:
Type in all cases: cell-based, human
[1] = test system: Detroit 562 cells; assay: Adherence of rPsaA- or peptide-coated fluospheres (beads) to Detroit 562 cells; settings: for mean adherence of coated fluospheres (mean FU±SE): 3,100±500 fluospheres per well, 2 hour incubation; for mean adherence signal (n=6): 2600 fluospheres/well; for mean adherence (% CV): batch 6, dilution 1:100, 2,600 fluospheres
Method: (§1) Carboxylate-modified fluorospheres (Molecular Probes™, […]) coated with either recombinant PsaA (rPsaA) or PsaA synthetic peptide (P4) were evaluated for their adherence to Detroit 562 NP cells. Four different batches of PsaA beads were generated by varying the concentration of the protein solution used to coat the beads (0.9 mg/ml, 0.53 mg/ml, 5.3 μg/ml and 0.53 μg/ml). P4 and Glycine control beads were generated by using a peptide solution (0.9 mg/ml). Protein concentrations were confirmed by the Bradford test (Sigma). PsaA and peptide beads were compared at similar inocula (1640±210 beads per well) in adherence and adherence competition assays (measured as mean fluorescent units (FU±SE)).
Recombinant PsaA protein or synthetic peptides were covalently bound to carboxylate-modified FluoSpheres (Molecular Probes, Eugene, Oreg.) (505/515 nm range, yellow, 1 μm in diameter). […] The 2% fluosphere stock was vortexed for 2 minutes at full speed. A 250-μl aliquot was sonicated for 5 minutes to break clumps. The sonicated fluospheres were washed 3 times by centrifugation at 10,000 rpm for 10 minutes in 250 μl MES buffer, pH 6.0 (Molecular Probes). The negative charge in the carboxylate-modified fluospheres was activated by adding 50 μl of EDAC solution (100 mg/ml, Molecular Probes) to the washed fluospheres resuspended in 200 μl MES. The fluospheres were incubated for 30 minutes RT with gentle rotation. A 250-μl volume of rPsaA (1 mg/ml) or peptide (2 mg/ml) resuspended in MES buffer was added to each fluosphere pellet. Suboptimal concentrations of rPsaA (900, 530, 5.3 and 0.53 μg/ml) were also used to generate partially coated fluospheres. Peptides were dissolved as 1 mg in 50 μl of 10% acetic acid followed by addition of 450 μl of MES buffer, pH 6.0. The 500-μl fluosphere suspension was incubated in the dark over night at room temperature with horizontal rotation (150 rpm). The remaining reactive sites were blocked by addition of a 50-μl volume of 1 M solution of glycine, followed by a-30-minute incubation at room temperature with horizontal rotation. The fluosphere suspension was then washed with 500 μl PBS, 50 mM, pH 7.2-7.4 three times by centrifugation at 10,000 rpm for 10 minutes. The first supernatant of the first wash was saved for protein determinations using the microtiter microdilution method of Bradford (Bio-Rad Laboratories, Calif.). The labeled fluosphere pellet was resuspended in 500 μl of PBS, 50 mM, pH 7.2-7.4. Labeled fluospheres were stored in the dark in 100-μl aliquots at 4° C. for up to 4 months. The peptides were stored in powder form at 4° C. under Dryerite desiccant. The resuspended peptides were stored at 4° C. for 6 weeks and for long term storage at −70° C. Fluospheres were counted by limiting dilution using a fluorometer (FLX-600, BioTek) with 485/520 nm excitation/emission wavelength and comparison to a calibration curve previously generated against hemacytometer counts.
Confluent monolayers of Detroit 562 cells grown in 96-well tissue culture plates for 6 days were washed once with 130 μl/well of PBS buffer+0.5% BSA (Sigma cat #A2153, Fraction V purified by alcohol precipitation). The entire outer perimeter of the microtiter plate was not used for adherence assays due to edge effect and lack of confluent growth in these wells. An 80-μl volume per well of PBS buffer+1% BSA and 20 μl per well of diluted fluosphere suspension (to yield ˜3100±500 fluospheres in a 20-μl volume) were added to the washed monolayers. The diluted fluosphere suspension was sonicated for 3 minutes prior to addition to the center of the wells. […] The sides of the plates were then tapped gently to mix. […] Following incubation, plates were washed 5 times with 130 μL/well of PBS+0.5% BSA. The liquid was removed after each wash with a multi-channel aspirator (Costar) and moderate vacuum. The plate was allowed to dry before reading in the fluorometer (485/520 nm). […]

[2] = test system: Detroit 562 cells; assay: Competitive inhibition of adherence of rPsaA-coated fluospheres to Detroit 562 cells; settings: for percent reduction in adherence of rPsaA-coated beads: rPsaA-coated beads 0.9 mg/ml batch, ~1,640 beads per well
Method: as §1
(§2) Homologous competitive inhibitions with 0.5 to 10 μg per well of rPsaA protein or 5 to 20 μg per well of each peptide were performed to determine the specificity of the adherence for rPsaA-coated fluospheres or for each of the three peptide-coated fluospheres. Heterologous competitive inhibitions with each peptide (10 μg per well) were performed to determine which peptide blocked the adherence of whole PsaA-coated fluospheres to the Detroit 562 cells. Absorption of PsaA-specific antibodies was performed by incubation (2 hours at ambient room temperature with rotation, 100 rpm) of 500 μl (1:8 dilution) of the serum 7051 with nitrocellulose strips (2.5×0.5 cm), previously impregnated with rPsaA protein (1.8 mg/ml) and allowed to dry at 37° C. for 1 hour. Strips were replaced every 2 hours for a total of 3 changes. All antibody absorptions were performed in PBS (10 mM, pH 7.2) supplemented with 1% (weight/volume) BSA as a non-specific blocker. Immunoglobulin G (IgG) concentrations (μg/ml) were measured as previously described (Tharpe, Romero-Steiner) after each absorption step to monitor the decline of anti-PsaA antibodies.

[3] = test system: Detroit 562 cells; assay: Homologous competitive inhibition of adherence of rPsaA- or peptide-coated fluospheres to Detroit 562 cells; settings: for percent reduction in adherence of P4-coated beads: ~1,640 beads per well
Method: as §1, §2

[4] = homologous competitor 5.0 μg/well
[5] = homologous competitor 10 μg/well

Question: “LFVESSVKRRPMKTVSQDTNIPIYAQIF [P4, non-branched synthetic peptide, PsaA amino acid residues 251 to 278 with DD changed to KR]” was tested. Which “mean adherence of coated fluospheres (mean FU±SE)” value [1] did it give?
Answer: 20,317±448 FU

Question: What about the “adherence of P4-coated beads (FU±SE)” value ([1]; beads coated with 0.9 mg/ml peptide solution, 1640±210 beads per well) of the same molecule?
Answer: 19,340 FU

Question: And the “inhibition of the binding of PsaA protein to Detroit 562 cells” value [2]?
Answer: ≥ 95%

Question: What about the “percent reduction in adherence of rPsaA-coated beads” value ([2]; competitor 5.0 μg/well) of the same molecule?
Answer: 23% and 18.5%

Question: And the “percent reduction in adherence of rPsaA-coated beads” value ([2]; competitor 10 μg/well)?
Answer: 57.6%

Question: What about the “percent reduction in adherence of rPsaA-coated beads” value ([2]; competitor 20 μg/well) of the same molecule?
Answer: 95% and 95.9%

Question: And the “inhibition of rPsaA-fluosphere adherence, heterologous competition” value ([2]; peptide 10 μg/well)?
Answer: 57.6%

Question: And the “inhibition of rPsaA-fluosphere adherence, heterologous competition” value ([2]; peptide 20 μg/well (6.2×10^−2 mM))?
Answer: 95.9%

Question: What about the “percent reduction in adherence of P4-coated beads” value ([3]; competitor 5.0 μg/well) of the same molecule?
Answer: 89% and 89.4%

Question: And the “percent reduction in adherence of P4-coated beads” value ([3]; competitor 10 μg/well)?
Answer: 88% and 87.6%

Question: And the “percent reduction in adherence of P4-coated beads” value ([3]; competitor 20 μg/well)?
Answer: 89% and 88.9%

Question: What about the “percent reduction in adherence of homologous coated fluospheres” value [3, 4] of the same molecule?
Answer: 89.4%

Question: What about the “percent reduction in adherence of homologous coated fluospheres” value [3, 5] of the same molecule?
Answer: 87.6%

Question: What about the “percent reduction in adherence of homologous coated fluospheres” value ([3]; homologous competitor 20 μg/well) of the same molecule?
Answer: 88.9%

B1: rPsaA: purified recombinant pneumococcal surface adhesin A, non-lipidated, donated by Aventis-Pasteur (protein)
chain: CASGKKDTTSGQKLKVVATNSIIADITKNIAGDKIDLHSIVPIGQDPHEYEPLPEDVKKTSEADLIFYNGINLETGGNAWFTKLVENAKKTENKDYFAVSDGVDVIYLEGQNEKGKEDPHAWLNLENGIIFAKNIAKQLSAKDPNNKEFYEKNLKEYTDKLDKLDKESKDKFNKIPAEKKLIVTSEGAFKYFSKAYGVPSAYIWEINTEEEGTPEQIKTLVEKLRQTKVPSLFVESSVDDRPMKTVSQDTNIPIYAQIFTDSIAEQGKEGDSYYSMMKYNLDKIAEGLAK
Question: For B1, which “mean adherence signal (n=6)” value ([1]; 20 min incubation) is on record?
Answer: 2,315 FU

Question: And the “mean adherence signal (n=6)” value ([1]; 140 min incubation (plateau starts))?
Answer: 16,597 FU

Question: And the “mean adherence signal (n=6)” value ([1]; 180 min incubation)?
Answer: 17,498 FU

Question: What about the “mean adherence of coated fluospheres (mean FU±SE)” value [1] of the same molecule?
Answer: 44,195±2,648 FU

Question: What about the “mean adherence (% CV)” value ([1]; day 1 after labeling) of the same molecule?
Answer: 30,105 FU

Question: And the “mean adherence (% CV)” value ([1]; day 60 after labeling)?
Answer: 30,595 FU

Question: What about the “adherence of PsaA beads (FU±SE)” value ([1]; beads coated with 0.53 μg/ml rPsaA, 1640±210 beads per well) of the same molecule?
Answer: 5,892 FU

Question: What about the “adherence of PsaA beads (FU±SE)” value ([1]; beads coated with 5.3 μg/ml rPsaA, 1640±210 beads per well) of the same molecule?
Answer: 12,788 FU

Question: And the “adherence of PsaA beads (FU±SE)” value ([1]; beads coated with 0.53 mg/ml rPsaA, 1640±210 beads per well)?
Answer: 16,748 FU

Question: And the “adherence of PsaA beads (FU±SE)” value ([1]; beads coated with 0.9 mg/ml rPsaA, 1640±210 beads per well)?
Answer: 47,875 FU

Question: What about the “inhibition of the adherence of PsaA-coated fluospheres, cold chase” value ([2]; non-fluorescent spheres coated with PsaA protein) of the same molecule?
Answer: up to 31%

Question: What about the “reduction of adherence of rPsaA fluospheres by whole recombinant protein” value ([3]; 0.5 to 10 μg/well) of the same molecule?
Answer: unable to significantly reduce

Question: What about the “reduction of adherence of rPsaA-coated fluospheres” value ([3]; additional concentrations 0.125 to 10.0 μg/well vs 3 μg/well) of the same molecule?
Answer: did not result in any further reduction

Question: What about the “percent reduction in adherence of homologous coated fluospheres” value ([3]; homologous competitor 0.5 μg/well) of the same molecule?
Answer: −5.2%

Question: What about the “percent reduction in adherence of homologous coated fluospheres” value ([3]; homologous competitor 1.0 μg/well) of the same molecule?
Answer: 9.8%

Question: And the “percent reduction in adherence of homologous coated fluospheres” value ([3]; homologous competitor 2.0 μg/well)?
Answer: 17.0%

Question: And the “percent reduction in adherence of homologous coated fluospheres” value [3, 4]?
Answer: 13.7%

Question: What about the “percent reduction in adherence of homologous coated fluospheres” value [3, 5] of the same molecule?
Answer: 11.4%
